{"source": "patent US7732151B2", "about": "“Use of IRS-polypeptides for identifying of pharmaceutically active compounds” (Sanofi-Aventis Deutschland GmbH, priority 2003, dated 2010)", "molecules": {"B1": {"name": "IRS-1: insulin receptor substrate 1 polypeptide used as kinase substrate (protein, listed as Homo sapiens)", "chain": "MASPPESDGFSDVRKVGYLRKPKSMHKRFFVLRAASEAGGPARLEYYENEKKWRHKSSAPKRSIPLESCFNINKRADSKNKHLVALYTRDEHFAIAADSEAEQDSWYQALLQLHNRAKGHHDGAAALGAGGGGGSCSGSSGLGEAGEDLSYGDVPPGPAFKEVWQVILKPKGLGQTKNLIGIYRLCLTSKTISFVKLNSEAAAVVLQLMNIRRCGHSENFFFIEVGRSAVTGPGEFWMQVDDSVVAQNMHETILEAMRAMSDEFRPRSKSQSSSNCSNPISVPLRRHHLNNPPPSQVGLTRRSRTESITATSPASMVGGKPGSFRVRASSDGEGTMSRPASVDGSPVSPSTNRTHAHRHRGSARLHPPLNHSRSIPMPASRCSPSATSPVSLSSSSTSGHGSTSDCLFPRRSSASVSGSPSDGGFISSDEYGSSPCDFRSSFRSVTPDSLGHTPPARGEEELSNYICMGGKGPSTLTAPNGHYILSRGGNGHRCTPGTGLGTSPALAGDEAASAADLDNRFRKRTHSAGTSPTITHQKTPSQSSVASIEEYTEMMPAYPPGGGSGGRLPGHRHSAFVPTRSYPEEGLEMHPLERRGGHHRPDSSTLHTDDGYMPMSPGVAPVPSGRKGSGDYMPMSPKSVSAPQQIINPIRRHPQRVDPNGYMMMSPSGGCSPDIGGGPSSSSSSSNAVPSGTSYGKLWTNGVGGHHSHVLPHPKPPVESSGGKLLPCTGDYMNMSPVGDSNTSSPSDCYYGPEDPQHKPVLSYYSLPRSFKHTQRPGEPEEGARHQHLRLSTSSGRLLYAATADDSSSSTSSDSLGGGYCGARLEPSLPHPHHQVLQPHLPRKVDTAAQTNSRLARPTRLSLGDPKASTLPRAREQQQQQQPLLHPPEPKSPGEYVNIEFGSDQSGYLSGPVAFHSSPSVRCPSQLQPAPREEETGTEEYMKMDLGPGRRAAWQESTGVEMGRLGPAPPGAASICRPTRAVPSSRGDYMTMQMSCPRQSYVDTSPAAPVSYADMRTGIAAEEVSLPRATMAAASSSSAASASPTGPQGAAELAAHSSLLGGPQGPGGMSAFTRVNLSPNRNQSAKVIRADPQGCRRRHSSETFSSTPSATRVGNTVPFGAGAAVGGGGGSSSSSEDVKRHSSASFENVWLRPGELGGAPKEPAKLCGAAGGLENGLNYIDLDLVKDFKQCPQECTPEPQPPPPPPPHQPLGSGESSSTRRSSEDLSAYASISFQKQPEDRQ"}}, "key": {"[1]": {"target": "T1, rat liver insulin receptor (WGA-IR) (Rattus norvegicus, UniProt P15127)", "T1 construct": "tissue Sigma (named as alternative source) 70543; host or cells: rat liver", "T1 sequence (P15127 27-759 limits assumed)": "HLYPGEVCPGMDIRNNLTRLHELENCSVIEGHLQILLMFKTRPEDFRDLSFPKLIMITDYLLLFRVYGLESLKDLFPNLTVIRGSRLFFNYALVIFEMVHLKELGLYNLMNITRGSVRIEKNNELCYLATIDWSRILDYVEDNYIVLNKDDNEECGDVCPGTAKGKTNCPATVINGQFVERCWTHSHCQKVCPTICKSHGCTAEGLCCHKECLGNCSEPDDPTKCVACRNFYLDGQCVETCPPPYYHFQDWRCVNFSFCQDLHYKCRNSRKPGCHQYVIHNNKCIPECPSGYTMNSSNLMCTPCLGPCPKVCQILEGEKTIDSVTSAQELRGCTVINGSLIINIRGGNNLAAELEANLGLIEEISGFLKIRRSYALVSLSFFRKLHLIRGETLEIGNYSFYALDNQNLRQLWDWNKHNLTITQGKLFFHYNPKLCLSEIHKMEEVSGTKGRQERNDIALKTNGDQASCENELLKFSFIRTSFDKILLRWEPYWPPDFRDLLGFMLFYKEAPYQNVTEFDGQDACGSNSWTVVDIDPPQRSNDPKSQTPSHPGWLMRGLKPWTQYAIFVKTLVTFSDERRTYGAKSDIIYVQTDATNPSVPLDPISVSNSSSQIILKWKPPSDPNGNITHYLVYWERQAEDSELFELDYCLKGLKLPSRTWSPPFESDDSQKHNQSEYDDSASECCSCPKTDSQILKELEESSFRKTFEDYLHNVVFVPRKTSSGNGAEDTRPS", "T1 sequence (P15127 764-1383 partner limits assumed)": "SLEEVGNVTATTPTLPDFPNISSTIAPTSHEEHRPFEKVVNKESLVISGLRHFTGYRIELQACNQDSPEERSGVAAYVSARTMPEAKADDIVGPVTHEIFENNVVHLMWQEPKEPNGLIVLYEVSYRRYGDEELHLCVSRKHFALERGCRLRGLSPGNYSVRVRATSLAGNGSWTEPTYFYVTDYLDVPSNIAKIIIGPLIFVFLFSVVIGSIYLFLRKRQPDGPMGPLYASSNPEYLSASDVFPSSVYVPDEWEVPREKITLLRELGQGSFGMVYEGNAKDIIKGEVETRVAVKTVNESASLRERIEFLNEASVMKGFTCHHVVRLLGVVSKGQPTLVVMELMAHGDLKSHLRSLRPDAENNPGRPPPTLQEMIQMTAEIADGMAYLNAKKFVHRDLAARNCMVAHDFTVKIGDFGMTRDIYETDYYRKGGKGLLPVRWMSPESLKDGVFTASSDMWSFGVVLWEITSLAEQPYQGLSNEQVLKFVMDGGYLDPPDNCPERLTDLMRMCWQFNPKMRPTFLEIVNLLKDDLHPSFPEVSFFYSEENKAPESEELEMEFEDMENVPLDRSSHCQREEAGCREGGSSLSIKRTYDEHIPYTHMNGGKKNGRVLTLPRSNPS", "assay": "ALPHAScreen: phosphorylation of biotinylated IRS-1 fragment by wheat germ lectin affinity-purified rat liver insulin receptor", "assay_type": "biochemical", "conditions": "85 nM biotinylated IRS fragment, 50 μM ATP, 30° C. for 30 minutes, p-Tyr antibody detection, FIG. 4", "excerpt": "The measurement of the kinase activity using ALPHAScreen™ from Perkin-Elmer Life Sciences, which is particularly expedient for the purposes of the present invention, takes place for example by the kinase to be investigated phosphorylating a biotinylated peptide in a biochemical mixture in the presence of ATP. The phosphorylated peptide is then bound by a specific anti-phospho antibody to which protein A-conjugated acceptor beads or provided with suitable second antibodies are coupled. The same mixture contains streptavidin-coupled donor beads which bind the biotin portion of the peptide. The binding to the peptide brings acceptor beads and donor beads in direct vicinity, starting a cascade of chemical reactions which generate a highly amplified, detectable luminescence signal: a photosensitizer in the donor bead is excited by laser excitation to convert oxygen in the surroundings into a singlet status. The singlet oxygen then diffuses to the acceptor bead where it excites a thioxene derivative which thus emits a chemiluminescence with a wavelength of 370 nm, which in turn excites further fluorophores in the acceptor bead to luminesce light with wavelengths of 520 to 620 nm. Since excitation of the fluorophores by singlet oxygen takes place only when donor bead and acceptor bead are in close vicinity, only then are detectable signals generated. […]"}, "[2]": {"conditions": "kinetic constant as enzyme substrate; cited from earlier work"}}}
{"molecule": "insulin: human insulin, peptide hormone, commercially available from Sigma under order number I-9266", "values": [{"measurement": "EC50", "setting": "[1]", "result": 10, "unit": "nM"}]}
{"molecule": "B1", "values": [{"measurement": "Km", "setting": "[2]", "result": 19, "unit": "µM"}]}
